The values below come from paper PMC11077437, “Scrutiny of chimeric antigen receptor activation by the extracellular domain: experience with single domain antibodies targeting multiple myeloma cells highlights the need for case-by-case optimization” (Frontiers in Immunology, 2024).

In experiment [1] the target is T1, recombinant murine CS1 protein (CS1-(his)C) (Mus musculus, strain , UniProt Q8BHK6).
T1 construct: CS1 (SLAMF7), murine, the extracellular portion; also called muCS1; source: HEK293-E 253 cells, transiently transfected, purified from the supernatant (IMAC, SEC) by U Protein Express
T1 sequence (Q8BHK6 23-224): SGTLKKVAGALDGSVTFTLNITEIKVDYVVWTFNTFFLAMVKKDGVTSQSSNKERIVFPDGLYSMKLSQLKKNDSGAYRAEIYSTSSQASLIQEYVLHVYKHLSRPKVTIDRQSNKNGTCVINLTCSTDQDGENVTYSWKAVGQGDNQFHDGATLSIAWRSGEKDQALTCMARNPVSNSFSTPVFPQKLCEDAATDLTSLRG
The experiment is described as follows: SPR; follow-up SPR on plate-coated muCS1 (Supplementary Figure 1). As to conditions: both partners purified. Background: Surface plasmon resonance follows binding to a sensor surface in real time, without labels.

The target of experiment [2] is T2, murine CS1 on muCS1pos 5T33vt cells (Mus musculus, 5T33vt myeloma cells, UniProt Q8BHK6).
T2 construct: CS1 (SLAMF7), murine, as expressed on 5T33vt cells; source: on murine CS1pos 5T33vt cells
T2 sequence (Q8BHK6 23-333): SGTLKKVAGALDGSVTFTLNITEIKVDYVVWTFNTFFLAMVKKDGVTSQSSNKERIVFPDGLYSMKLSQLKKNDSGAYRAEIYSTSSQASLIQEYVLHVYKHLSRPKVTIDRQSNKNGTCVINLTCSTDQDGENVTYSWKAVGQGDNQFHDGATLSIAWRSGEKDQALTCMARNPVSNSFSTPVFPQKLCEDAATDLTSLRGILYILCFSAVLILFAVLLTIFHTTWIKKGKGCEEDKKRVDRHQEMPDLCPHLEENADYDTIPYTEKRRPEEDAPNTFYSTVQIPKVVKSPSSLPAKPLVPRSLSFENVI
Put plainly: flow cytometry on cells; VHH on muCS1pos 5T33vt cells (Supplementary Figure 2). Conditions: one partner purified. In general terms: Flow cytometry measures light scatter and fluorescence of single cells or particles in a stream.

Experiment [3] deals with T3, recombinant human CS1 protein (CS1-(his)C) (Homo sapiens, UniProt Q9NQ25).
T3 construct: CS1 (SLAMF7, CD319), human, the extracellular portion; also called huCS1; SLAMF7; source: HEK293-E 253 cells, transiently transfected, purified from the supernatant (IMAC, SEC) by U Protein Express
The experiment is described as follows: SPR; Biacore T200; recombinant CS1 amine-coupled on a CM5 chip; VHH 100 nM to 3.125 nM in HBS pH 7.4, 25°C; association 180 s, dissociation 300 s; fit '1:1 binding with drift and RI2'; n=1. Conditions: both partners purified.

Experiment [4] has as its target T4, human CS1 on CS1pos OPM2 multiple myeloma cells (Homo sapiens, OPM2 myeloma cells, UniProt Q9NQ25).
T4 construct: CS1 (SLAMF7, CD319), human, as expressed on OPM2 cells; also called cell-expressed CS1; huCS1; source: on CS1pos OPM2 cells (ATCC)
Put plainly: flow cytometry on cells; purified VHH at 200 nM, 1 h at 4°C, on CS1pos OPM2 cells; detected by mouse anti-His IgG1 mAb and APC anti-mouse IgG1 mAb; ΔMFI against the non-targeting control VHH R3B23 at 200 nM; n=1. As to conditions: one partner purified.

B1: VHH-78 (VHH)
VHH: QVQLQESGGGLVQPGGSLRLSCAASGSIFSILAMGWYRQAPGKQRELVASVTNGGSTNYADSVKGRFTISRDNAKNTVYLQMNSLKPEDTAVYYCNVRPYSDYDSWGHGTQVTVSS
notes: source: E. coli WK6 periplasm, purified (IMAC, SEC); not shown: His6, C-terminal, kept
As to B1, the binding result is on record as “binds” in experiment [1], “binds” in experiment [2], “no binding (tested: 100 nM)” in experiment [3] and “no binding (tested: 200 nM)” in experiment [4].

B2: VHH-79 (VHH)
VHH: QVQLQESGGGLVQPGGSLRLSCAASGSIFSILAMAWYRQAPGKQRELVASITNGGSTNYADSVKGRFTISRDNDKNTVYLLMNSLKPEDTAVYYCNPRPMPWGTYDYWGQGTQVTVSS
notes: as for B1
For the molecule B2, the binding result is “binds” in experiment [1], “binds” in experiment [2], “no binding (tested: 100 nM)” in experiment [3] and “no binding (tested: 200 nM)” in experiment [4].
